{
  "source": "paper PMC7031066",
  "binders": {"B1": {"name": "PeHA1 promoter W-box probe (dsDNA)", "DNA 1": "CCCTATCGGGCAAGATTTGACCCGCCCGAGTTGATCCCTC", "DNA 2": "GAGGGATCAACTCGGGCGGGTCAAATCTTGCCCGATAGGG"}, "B2": {"name": "W-box mutant probe (TTGACC to TTAGCC) (dsDNA)", "DNA 1": "B1 DNA 1 with G19A, A20G", "DNA 2": "B1 DNA 2 with T21C, C22T"}, "B3": {"name": "PeHA1 promoter W-box unlabeled competitor (dsDNA)", "DNA 1": "B1 DNA 1", "DNA 2": "B1 DNA 2"}},
  "key": {"PeWRKY1 [1]": {"biological_target": "T1, PeWRKY1 (Populus euphratica, UniProt A0AAJ6U0E7 1-595)", "assay": "EMSA"}, "PeWRKY1 [2]": {"biological_target": "T1, PeWRKY1", "assay": "competition"}, "PeWRKY1 [3]": {"biological_target": "T1, PeWRKY1", "assay": "competition", "remark": "listed apart in the source"}},
  "note": "Residue numbers refer to the chain shown, from its start.",
  "data": [
    {"binder": "B1", "values": [
      {"measurement": "binding result", "setting": "PeWRKY1 [1]", "value": "binds"}
    ]},
    {"binder": "B2", "values": [
      {"measurement": "binding result", "setting": "PeWRKY1 [2]", "value": "no binding"}
    ]},
    {"binder": "B3", "values": [
      {"measurement": "binding result", "setting": "PeWRKY1 [3]", "value": "binds"}
    ]}
  ]
}
